Experimental data published in the DeepSol protein solubility set.

Test: soluble on expression in E. coli; label from the status in PepcDB or PDB records

Sequence | soluble on expression in E. coli
GHDEIGQLATTFNHLTRELEDAQAMTEGERRKLASVIAYMTDGVIATNRNGAIILLNSPALELLNVSRETALEMPITSLLGLQENYTFEDLVEQQDSMLLEIERDDELTVLRVNFSVIQREH | not soluble
MGSDKIHHHHHHMKLLEVKGLKKYFPLTKGFFKKVVGYVRAVDDVSFDIKQGETLALVGESGCGKTTTAKSILRAIDPTDGDVILHLDGKDVNIAKLSRDELKPYRRYMQMIFQNPYTSLNPRMKVKEIVGEPLLVNGIAKGKELEDRVAELLKAVGLRPEYMIRYPHAFSGGQRQRIVIARAIALRPKLVVCDEPTSALDVSIRAQILNLLMDLQEEFALTYLFITHDLSVVEHISDRVAVMYLGKIVELSSTEEIFENPKHPYTETLLRSVPKPDPDLREELVPIEGEVPNPANPPSGCYFHPRCPYAKSICKEEYPEFRNLGTEDNPHYVACHFAESLKLRGVKITL | not soluble
MSLSFLKHVQDCNTHDLSNFVRFVIEGRRVGWVRKALAQRLKAHGRVFDVTRDAVLLSASLRTPQSRTRAVADVVDRLADEGVVPAPRGELYRVNQSWGEPTLMLLDRAVVPTFGVRAYGVHLNGYVGAGADLHLWIGRRSPDKSVAPGKLDNMVAGGQPADLSLRQNLIKECAEEADLPEALARQAIPVGAITYCMESPAGIKPDTLFLYDLALPEDFRPHNTDGEMADFMLWPAAKVVEAVRTTEAFKFNVNLTVIDFAIRHGLIDPDNEPDYQEILAGLRGRPRERAASEGHHHHHH | soluble
MSLQNAKLMLTCLAFAGLAALAGCSFPGVYKIDIQQGNVVTQDMIDQLRPGMTRRQVRFIMGNPLIVDTFHANRWDYLYSIQPGGGRRQQERVSLFFNDSDQLAGLNGDFMPGVSRDEAILGKEGSTTVTQPADQQKPEAQKEEPPKPGSTLEQLQREVDEAQPVPVPTPEPLDPSPQEGHHHHHH | soluble
MGSDKIHHHHHHMTTPFKRIHLIVMDSVGIGEGPDAAAFNDEGSHTLKHTLEGFKQKLPHLEQLGLGNIAPLPVVSKVTHPGAFYTKLSEASVGKDTMTGHWEIMGLNIMQPFKVYPNGFPAELVKEIESMTGRKVVANRPASGTQIIDEWGEHQMKTGDLIVYTSADPVLQIAAHEDVIPLEELYEICEKVRELTKDPKYLIGRIIARPYVGEPGNFTRTSNRHDYALKPFGRTVMNSLKDSGYDVIAIGKINDIYDGEGVTEAIRTKNNMDGMDQLIEVVKKDFEGISFLNLVDFDALYGHRRDKEGYAQAIKDFDLRLPELMNHLREDDLVIITADHGNDPIAKGTDHTREYIPLLMFSPKIKDYHELSQDTTFSSIGVTIADNFNVELPKYGKSYLKEMGVEHQ | not soluble
MSLGTVHARSLDPLPMQGPELGVQADDMDLGEPEREEKQEVLENKDVVVQHVHIDGLGRTKEDILTYEIADVFHAKNLIDVMKKSHEARQKLLRLGIFRHVEVVIDTAEGADALPNGLDVTFEVRELRRMTGSYNTMVGNNEGSMVLGIKLPNVLGRAEKLTFQFSYGTKETSYGLSFFKPQPGHFERNFSLNLYKVTGQFPWSSLRETDRGVSAEISFPIWRTSHTLKWEGVWRELGCLARTASFAVREESGHSLKSSLAHAMVIDTRNSTILPRKGALLKINQELAGYTGGDVSFLKEDFEIQLNKTLFWDSVLSTSLWGGMLLPLGEKASSIADRFYLGGPTSVRGFSMYSIGPQSEGDYLGGEAYWAGGVHLYTPLPFRPGRGGFGDLFRTHFFLNAGNLCNLNYGEGPRAHLSKLAECIRWSYGAGIVLRLGNIARLELNYCIPMGVQSGDRICDGVQFGAGIRFLEGHHHHHH | not soluble
MGSDKIHHHHHHMDEMKVIEIIKKTLKFSNENIVKGIDDDCAIIKIDENFYLVATTDMMVKKAHIPSILSPYEIGGRILTANVSDIASMGAKPLAFLVSISLSKEEANEKFIKELYSGLDDFSKLYDCPVVGGDTNRGDELILSGTAFGITDNPIYRRGKVGDDICVTNDLGRVYCALTLYYMLKENKISYKEFERLCQKYPKIIEKLRKPIARIKEGLLMNKLINGCCDISDGLGKEITYFKNFEIYSDRIFKLIPEDVIEFCDAFNLNPIKVALNSGEEFELLFTTSKFNKVKDSLKGYSKIYKIGKIIEDGQFIDGEEFYGGGYIHKW | not soluble
MGSDKIHHHHHHETEAPQVTTSSRPAVEIKYNDPRDPFEEVNRTMWDFNYLFLDRYVIRPVAHGYKDYVPNPVRTGVNNFVYNLEEPSSLVNNTLQGKWGWAANAGGRFTVNTTIGLLGLVDVADMMGMHRKQDDFNEVLGYYGTPNGPYFMAPFYGPIVTREIASDWVDGLYFPLSELTIWQSVLKWGLKGLDARSKAIDQERLLDNALDPYAFVKDAYLQHMDYKVFDGDVPSSQADDELLDEYLDELE | not soluble
MAVKHKSESLKHEEGAAKKAKTGLLKLKKIMDIESNVVKYSICIPTTVIDNCNNLEQVTFTAYQIARTAVLFNVQEIIVLDQSKDKKHEKKSRSKETISDCLLLATLLQYFVTPPNLLDTTFKKKNKLYLKCASTFPPLNQLPFMNASAEQHYKEGLSIARDSSKGKSDDALTNLVYIGKNQIITLSNQNIPNTARVTVDTERKEVVSPIDAYKGKPLGYHVRMASTLNEVSEGYTKIVWVNSGDFHYDEELSKYHKVETKLPYIAKLKKSSTSEKPCNILLIFGKWGHLKRCFRRSDLESSSLHHYFSGQLQFPASVPQGNIPIQDSLPIALTMFQRWAS | soluble
MGSDKIHHHHHHMKSYRKELWFHTKRRREFINITPLLEECVRESGIKEGLLLCNAMHITASVFINDDEPGLHHDFEVWLEKLAPEKPYSQYKHNDTGEDNADAHLKRTIMGREVVIAITDRKMDLGPWEQVFYGEFDGMRPKRVLVKIIGE | soluble
MNKRYNTLNDYYRRIFGEKTFKVPIDAGFDCPNRDGTVAHGGCTFCTVSGSGDAIVAPEAPIRDQFYKEVDFMHRKWPDVKKYLVYFQNFTNTHDKVEVIRERYEQAINEPGVIGINIGTRPDCLPDVTILYLAELSQRLHVTLELGLQTTYEKTSKLINRAHSYQLYVETVKRVRDLAPKVEIVSHLINGLPGESHEMMLENVRRCVTDNDIDGIKLHLLHLMTNTRMQRDYHEGRLHLLSMEEYVNIICDQLEIIPKNIVIHRLTGDAPRDMLIGPMWSLNKWEVLNSIDREMERRNAYQGCKLEVNI | not soluble
MFKQFIEDAKSIAERDPAATSVLEVIFLYSGFHAVCLHRIAHWFYKRNMRFIARFISQLNRFLTGVEIHPGAKIGKGLFIDHGMGVVIGETAEVGDNCTIYHNVTLGGTGKDKGKRHPTIGNNVLISTGAKVLGPFKVGDNSRIGANAVVLNEVEPNTTVVGVPGRAVKRGNQKIVPSIELDQIHIPDPVAQELCRIKQRLESLEKELMEMRRASQGSNVQEPVPQEKSCEEECKLEMGKEIADNETL | not soluble
MGSDKIHHHHHHMGILQTMFIGFDYGTANCSVAVMRENTPQLLTLENGSTLLPSMLCAPTREAVSEWLYRHHDVPTHSDENQALLRRAIAANRDEDIEVLRNSVQFGLASLQQYVEDPQEVYFVKSPKSFLGASGLKPQQVALFEDLVCAMMLHIKLQAESQLPEQIDQAVIGRPINFQGLGGDEANAQAQGILERAAHRAGFRDVVFQFEPVAAGLDFEATLSEEKRVLVVDIGGGTTDCSLLLMGPQWRERADRQQSLLGHSGCRIGGNDLDIALAFKCLMPLLGMGGETEKGTALPILPWWNAVAINDVPAQSDFYSTANGRLLNDLLRSARDADKVALLLKVWRQRLSYRLVRSAEESKIALSSAASVETALPFIQDDLATAIAQQGLEAALDQPLTRIMEQVRLALDSSQTTPDVIYLTGGSARSPLIKKALAAQLPGIPLAGGDDFGSVTAGLARWAQVVFR | not soluble
MGSDKIHHHHHHMFMERQDRYYQTYLNILKEELVAAMGCTEPIAIAYGAAKAREVLGAVPHKVVLEVSSNIIKNVKSVVVPNTDGLKGIEAATAAGIIAGRSDKILEVIAEVCQAEKQQIKTYLSETDIEVKLADSQIIFDIMITMFHQDSYVKLRIADYHTHIVHIEKNGEIIFGTGDLDAGISSLTDRKLLSVSKIIEFADSVRIEDVKELLDKQIEYNSAIARAGMEGNYGANVGRVLLKTYGNDVKIRAKAMAAAGSDARMSGCELPVIINSGSGNQGMTASLPVIEYAAELQSGEEKLYRALVVSNLITLHLKTGIGRLSAFCGVICAGCGSGAGIAYLHGGGYDEIAHTIVNAAAIVSGIVCDGAKPSCAGKIAAAVDAGILGYLMYKEGQQFRGGDGIVAKGIENTIANIGYLGKVGMKETDKEIINIMLNQCSS | not soluble
MAGDPMPTLFDDPLHQLPRPPRRVAAGVVHLPNFLGLAEQKALVAQARDLAREVVGTPLAMVRPKLKSGQMSVHMLHLGKYWASNPYRYVDVVDGFPVPPLPDSFVDLAHRALLSAGSLSNSLQSWSEAYRAEAALVNYYSPDASMGMHQDANEESEAPVISLSIGDTGIFRLGGTLNRNKPWTDIPLMSGDLIVFGGANRQAFHGIPSIEANTAPAGCGLKEGRINITIRQLALAAALEHHHHHH | soluble
SLNTGEPAPVLSSPPPADVSTFLAFPSPEKLLRLGPKSSVLIAQQTDTSDPEKVVSAFLKVSSVFKDEATVRMAVQDAVDALMQKAFNSSSFNSNTFLTRLLVHMGLLKSEDKVKAIANLYGPLMALNHMVQQDYFPKALAPLLLAFVTKPNSALESSSFARHSLLQTLYKV | soluble
GPGSMLRPTCPVAKNLTSFATKGTMRGGIPRIYYTWMKPGSATRRRFEKMRNPFVNLETGTSLYFRDTRDSAEAVAHAADSKGLKGMDNGVDLYNEYKIVPDLYPEGFQWKHKLNTEYNQWRSNTWLTPELIPQEHRGRFLCNFQLNIVAYDMRVVKFSPKDHRQWIYCVLYVGTGKGIAGFGRAVAPSTQEARNEAIREAFSNIIAVDLEQEGPMYPVRINADGARVLLYPARRIIANFRVADILCAFGFQNAGCKINLKASNNPKAPTHTVEGVFEAVKALRSVSEIAASRGKVPHSLVYNIYPYLEEMRRRKGMMAMHPPGKDGIFMPNRVVDNRMPDHLKKGYYDDVYWKDFFAGSKEQLNEPKMGLRGDELRAQLEESQGRTAKRSNRRTLDDVLRRLGKTSRDLGALQVVNPRLDAKLPTHMKRNYLLH | not soluble
MCGIVGYIGNNEKKQIILNGLKELEYRGYDSAGMAVMQEGELSFFKAVGKLENLANKCTDFESQGYGFAIGHTRWATHGKPTEINAHPHLGQYSCVIHNGIIENYKEIKDKLEKEGVSFLSQTDTEVIVQLFEFYARNLGVFEAWQKTIKELRGAFATLLVTKKDPNHVYFAKNAAPLIIGKNANKEWYFSSGDAPLIGSCDEVMYLEDLSLGYASKDELVVYENDILKSLCFSKLSGDKAYAKKDGFRFFMEKEIYEQSRVMSEVLMGRIQGDEVVFDELNNEDLSQVDEITLCACGTSYHAAMASAYLFERIAKVKAKVEIASEFRYREAIIKKDSLFIVISQSGETADTLEALKIAKEQGAKTFAICNVDNSNIVRLAHLSLLTRAGIEKGVASTKAFATQVLTLWMLAIFMAQKRNLNVSAEIKALLHTPNCVSVKQALHEKIHRLSKRYLDGHGFFFIGRDVFYPLALEGALKLKELSYLHAEGYPAGEMKHGPIALADSKLYTIALMPKHMLYEKTKSNVEELIARDSTVLSISPLEFDLSDDFIKTNEQDHYMCEFFEMMVITQLLAMEISIRLGNDVDMPRNLAKSVTVE | not soluble
MSLVRNSSRLLRSQLKRVQSVPVALYHENVVEHYENPRNVGSLDKKDVTVGTGLVGAPACGDVMKLQIKVDENGKIVDAKFKTFGCGSAIASSSLATEWVKGKSIDEAGKLKNTDIAKELRLPPVKLHCSMLAEDAIKAALADYKVKQQKKVAN | not soluble
SPPENRGEHETGRTLHIATYNIHKGLSFFNQRLILHELRDQLHGLDVDVVFLQEVVGEHALHATRFRDWPRNTQYEFLADSMWPDFAYGKNAVYGHGHHGNAILSRFSIVNWENEDISAHRFESRGLLHCELAIPGWKDTLHCICVHLGLFRRGRSQQLEAIEKRIRQLVSPDAPLVVAGDFNDWRGAANPLLASRLNLVEVFQHTHGKAARSFPSVLPLLRLDRIYIRGFQVKNAQILHNRPWSRISDHAVLSANIMRT | not soluble
